Laboratory results as given in patent US20230250148A1 (published 2023).
Residue numbers refer to the chain shown, from its start. Like-named read-outs stand apart in the source and are kept apart here. Blank lines part the entries; values can stand above or below the binder they belong to.

How the values were obtained:
[1] = target: T1, human insulin receptor (IR) on human IM-9 cells (human, UniProt P06213 28-1382); test: competition with biotinylated RHI on IM-9 cells, flow cytometry, 4 C
T1 construct: whole, on cells; also called human IR
T1 sequence (P06213 28-1382): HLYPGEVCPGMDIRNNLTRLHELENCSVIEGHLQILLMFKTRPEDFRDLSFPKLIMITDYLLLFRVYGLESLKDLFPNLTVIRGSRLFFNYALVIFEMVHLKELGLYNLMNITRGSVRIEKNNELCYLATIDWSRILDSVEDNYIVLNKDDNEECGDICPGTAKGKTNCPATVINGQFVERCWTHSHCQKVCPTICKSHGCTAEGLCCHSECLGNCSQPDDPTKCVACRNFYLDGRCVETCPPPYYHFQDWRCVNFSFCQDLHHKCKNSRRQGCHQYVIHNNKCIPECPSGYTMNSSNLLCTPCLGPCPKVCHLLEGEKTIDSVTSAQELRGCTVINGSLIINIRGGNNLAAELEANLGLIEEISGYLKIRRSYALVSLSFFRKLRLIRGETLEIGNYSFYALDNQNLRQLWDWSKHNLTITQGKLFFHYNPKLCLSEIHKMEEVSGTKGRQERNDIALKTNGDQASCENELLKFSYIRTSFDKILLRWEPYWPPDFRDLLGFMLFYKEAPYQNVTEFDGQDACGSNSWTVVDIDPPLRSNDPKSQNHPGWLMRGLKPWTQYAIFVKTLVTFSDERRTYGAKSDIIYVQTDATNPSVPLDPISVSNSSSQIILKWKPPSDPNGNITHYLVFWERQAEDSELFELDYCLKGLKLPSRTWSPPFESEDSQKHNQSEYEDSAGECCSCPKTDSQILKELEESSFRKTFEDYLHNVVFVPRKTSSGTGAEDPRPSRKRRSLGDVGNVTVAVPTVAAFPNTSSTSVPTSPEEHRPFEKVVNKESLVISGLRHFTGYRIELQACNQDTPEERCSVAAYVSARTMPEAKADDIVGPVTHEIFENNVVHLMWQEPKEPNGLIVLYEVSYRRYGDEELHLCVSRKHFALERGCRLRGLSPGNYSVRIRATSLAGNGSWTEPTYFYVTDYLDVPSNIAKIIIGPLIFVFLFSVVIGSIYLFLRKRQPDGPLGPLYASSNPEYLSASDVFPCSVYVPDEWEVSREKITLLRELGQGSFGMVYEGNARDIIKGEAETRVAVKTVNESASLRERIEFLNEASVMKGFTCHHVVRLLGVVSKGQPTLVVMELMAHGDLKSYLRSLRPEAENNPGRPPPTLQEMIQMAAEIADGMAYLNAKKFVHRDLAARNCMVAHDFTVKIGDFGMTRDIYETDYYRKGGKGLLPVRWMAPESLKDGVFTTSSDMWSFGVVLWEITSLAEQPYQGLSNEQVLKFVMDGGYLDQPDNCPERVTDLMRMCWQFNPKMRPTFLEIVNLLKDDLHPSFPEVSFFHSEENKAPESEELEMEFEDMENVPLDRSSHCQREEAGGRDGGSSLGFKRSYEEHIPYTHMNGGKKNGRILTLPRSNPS
Experimental: (§1) 40 µL of an IM-9 cell suspension (8×10⁶ cells/mL) was then added to each well by multichannel pipette, mixed again gently and incubated on ice for 30 min to allow competitive binding on the IR on IM-9 cells. Cells were then washed twice with 275µL of ice-cold FACS wash buffer (HBSS/2mM EDTA/0.1% Na-azide + 0.5% horse serum) by centrifuging the V-bottom plate at 3000 rpm for 3 min and aspirating the supernatant. Cells were then resuspended in 40µL of FACS staining medium containing 1:100 diluted Streptavidin-PE (Life Technologies) for 20 min on ice. Cells were then washed once with 275 µL of ice-cold FACS buffer and finally fixed with 3% paraformaldehyde for 10 min at room temp. Cells were then washed once with 275 µL of ice-cold FACS buffer and resuspended in 250µl of FACS buffer for analysis.
(§2) The insulin-Fc fusion proteins were manufactured in HEK293 cells according to Example 1 and purified using a Protein A column according to Example 4. Their structures were confirmed according to Example 6 by non-reducing and reducing CE-SDS, and the sequences were further identified by LC-MS with glycan removal according to Example 8. Their %homodimer content was measured by size-exclusion chromatography according to Example 10, and their insulin receptor binding affinities were measured according to Example 12.

[2] = target: T2, biotinylated recombinant human Fc(gamma)RI (human, UniProt P12314 16-288, biotinylated, site not stated); test: ELISA, fusion protein coated, biotinylated rhFc(gamma)RI at 3000 ng/mL
T2 construct: Bought reagent; construct not described; also called rhFc(gamma)RI; Fc(gamma) receptor I
T2 sequence (P12314 16-288 limits assumed): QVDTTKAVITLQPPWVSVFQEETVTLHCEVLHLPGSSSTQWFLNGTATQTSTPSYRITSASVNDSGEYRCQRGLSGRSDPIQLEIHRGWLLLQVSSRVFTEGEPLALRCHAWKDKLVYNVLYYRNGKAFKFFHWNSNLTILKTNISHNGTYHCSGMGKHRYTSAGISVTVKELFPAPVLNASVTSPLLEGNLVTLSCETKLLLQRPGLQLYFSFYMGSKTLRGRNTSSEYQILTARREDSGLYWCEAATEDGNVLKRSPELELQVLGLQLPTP
Experimental: (§3) The binding of insulin-Fc fusion proteins to the Fc(gamma)RI at pH 7.4 is conducted using an ELISA assay as follows using human Fc(gamma)RI (i.e., rhFc(gamma)RI). Insulin-Fc fusion proteins are diluted to 10 µg/mL in sodium bicarbonate buffer at pH 9.6 and coated on Maxisorp (Nunc) microtiter plates overnight at 4° C., after which the microplate strips are washed 5 times with PBST (PBS/0.05% Tween-20) buffer and blocked with Superblock blocking reagent (ThermoFisher). Serial dilutions of biotinylated rhFc(gamma)RI (recombinant human Fc(gamma)RI; R&D Systems) are prepared in PBST/10% Superblock buffer from 3000 ng/mL to 4.1 ng/mL and loaded at 100 µL/well onto the microplate strips coated with insulin-Fc fusion protein. The microtiter plate is incubated for 1 hour at room temperature after which time the microplate strips are washed 5 times with PBST and then loaded with 100 µL/well of streptavidin-HRP diluted 1:10000 in PBST/10% Superblock buffer. After incubating for 45 min, the microplate strips are washed again 5 times with PBST. TMB is added to reveal the bound Fc(gamma)RI proteins and is stopped with ELISA stop reagent (Boston Bioproducts). The plate is read in an ELISA plate reader at 450 nm, and the OD450 values (proportional to the binding of rhFc(gamma)RI to insulin-Fc protein) are plotted against log concentrations of rhFc(gamma)RI added to each well to generate binding curves using GraphPad Prism software. For groupings of compounds with somewhat similar curves, the OD450 at one of the higher concentrations, for instance at rhFc(gamma)RI concentrations of 3000 ng/mL, can be used to identify differences between coated insulin-Fc fusion protein compounds. […]
Finally, select compounds were tested for their likelihood to interact with the immune system by measuring their Fc(gamma) receptor binding activity according to the procedure of Example 15.

[3] = target: T1, human insulin receptor (IR) on human …; test: competition with biotinylated RHI on IM-9 cells, flow cytometry, 4 C; remark: listed apart in the source
Experimental: as §1, §2

[4] = target: T2, biotinylated recombinant human …; test: ELISA, fusion protein coated, biotinylated rhFc(gamma)RI in solution
Experimental: as §3

[5] = target: T2, biotinylated recombinant human …; test: as above; remark: listed apart in the source
[6] = target: T1, human insulin receptor (IR) on human …; test: competition with biotinylated RHI on IM-9 cells, flow cytometry, 4 C; remark: listed apart in the source
Experimental: as §1, §2

[7] = target: T1, human insulin receptor (IR) on human …; test: as above; remark: listed apart in the source
Experimental: as §1
The lack of in vivo potency for the insulin-Fc fusion protein of SEQ ID NO: 43 correlates with its high IC50 (shown in Table 9 below) as measured by the insulin receptor binding assay according to the method of Example 12.

B1: insulin-Fc fusion protein of SEQ ID NO: 56 (Fc fusion)
chain: FVNQHLCGSHLVEALELVCGERGFHYGGGGGGSGGGGGIVEQCCTSTCSLDQLENYCNHGGGGQGGGGQGGGGQGGGGGDCPKCPAPEMLGGPSVFIFPPKPKDTLLIARTPEVTCVVVDLDPEDPEVQISWFVDGKQMQTAKTQPREEQFNGTYRVVSVLPIGHQDWLKGKQFTCKVNNKALPSPIERTISKARGQAHQPSVYVLPPSREELSKNTVSLTCLIKDFFPPDIDVEWQSNGQQEPESKYRTTPPQLDEDGSYFLYSKLSVDKSRWQRGDTFICAVMHEALHNHYTQESLSHSPG
notes: Combined variant, canine IgGB Fc with native cNg
IC50 [1]: 0.554 µM

B2: insulin-Fc fusion protein of SEQ ID NO: 28 (Fc fusion)
chain: B1 chain with H59G
IC50 [1]: 1.25 µM

B4: insulin-Fc fusion protein of SEQ ID NO: 62 (Fc fusion)
chain: FVNQHLCGSHLVEALELVCGERGFHYGGGGGGSGGGGGIVEQCCTSTCSLDQLENYCGGGGGQGGGGQGGGGQGGGGGDCPKCPAPEMLGGPSVFIFPPKPKDTLLIARTPEVTCVVVDLDPEDPEVQISWFVDGKQMQTAKTQPREEQFSGTYRVVSVLPIGHQDWLKGKQFTCKVNNKALPSPIERTISKARGQAHQPSVYVLPPSREELSKNTVSLTCLIKDFFPPDIDVEWQSNGQQEPESKYRTTPPQLDEDGSYFLYSKLSVDKSRWQRGDTFICAVMHEALHNHYTQESLSHSPG
notes: 71% homodimer
OD450nm [2]: 0.175
OD450nm minus assay background [2]: 0.118
ratio to SEQ ID NO: 36 [2]: 0.32
IC50 [3]: 2.3 µM

B9: insulin-Fc fusion protein of SEQ ID NO: 40 (Fc fusion)
chain: FVNQHLCGSDLVEALALVCGERGFFYTDPTGGGPRRGIVEQCCHSICSLYQLENYCNGGGGAGGGGDCPKCPAPEMLGGPSVFIFPPKPKDTLLIARTPEVTCVVVDLDPEDPEVQISWFVDGKQMQTAKTQPREEQFSGTYRVVSVLPIGHQDWLKGKQFTCKVNNKALPSPIERTISKARGQAHQPSVYVLPPSREELSKNTVSLTCLIKDFFPPDIDVEWQSNGQQEPESKYRTTPPQLDEDGSYFLYSKLSVDKSRWQRGDTFICAVMHEALHNHYTQESLSHSPG
notes: non-glycosylated
OD450nm [4]: 0.14
OD450nm minus assay background [4]: 0.077
ratio to SEQ ID NO: 36 [4]: 0.24
fold lower Fc(gamma)RI binding against SEQ ID NO: 36 [5]: 4 fold

B10: insulin-Fc fusion protein of SEQ ID NO: 42 (Fc fusion)
chain: B9 chain with S139K
notes: non-glycosylated
OD450nm [4]: 0.126
OD450nm minus assay background [4]: 0.063
ratio to SEQ ID NO: 36 [4]: 0.2

B12: insulin-Fc fusion protein of SEQ ID NO: 44 (Fc fusion)
chain: FVNQHLCGSHLVQALYLVCGERGFFYTDPTGGGPRRGIVEQCCTSICSLYQLENYCGGGGAGGGGDCPKCPAPEMLGGPSVFIFPPKPKDTLLIARTPEVTCVVVDLDPEDPEVQISWFVDGKQMQTAKTQPREEQFSGTYRVVSVLPIGHQDWLKGKQFTCKVNNKALPSPIERTISKARGQAHQPSVYVLPPSREELSKNTVSLTCLIKDFFPPDIDVEWQSNGQQEPESKYRTTPPQLDEDGSYFLYSKLSVDKSRWQRGDTFICAVMHEALHNHYTQESLSHSPG
IC50 [7]: 2.62 µM

B14: insulin-Fc fusion protein of SEQ ID NO: 45 (Fc fusion)
chain: B12 chain with H10E, Q13E, Y16A
IC50 [7]: 0.633 µM

Continued, values first:

IC50 [1]: 3.87 µM
B3: insulin-Fc fusion protein of SEQ ID NO: 55 (Fc fusion)
chain: B4 chain with H25F, G27T, G28P, G29K, G30T, S151N

IC50 [1]: 2.04 µM
B5: insulin-Fc fusion protein of SEQ ID NO: 57 (Fc fusion)
chain: B4 chain with H25F, S151N

OD450nm [2]: 0.166
OD450nm minus assay background [2]: 0.109
ratio to SEQ ID NO: 36 [2]: 0.29
IC50 [3]: 3.09 µM
B6: insulin-Fc fusion protein of SEQ ID NO: 61 (Fc fusion)
chain: B4 chain with D119A
notes: 73% homodimer

IC50 [1]: 4.18 µM
B7: insulin-Fc fusion protein of SEQ ID NO: 49 (Fc fusion)
chain: FVNQHLCGSHLVQALYLVCGERGFFYTDPTQRGGGGGQRGIVEQCCTSICSLYQLENYCGGGGAGGGGDCPKCPAPEMLGGPSVFIFPPKPKDTLLIARTPEVTCVVVDLDPEDPEVQISWFVDGKQMQTAKTQPREEQFSGTYRVVSVLPIGHQDWLKGKQFTCKVNNKALPSPIERTISKARGQAHQPSVYVLPPSREELSKNTVSLTCLIKDFFPPDIDVEWQSNGQQEPESKYRTTPPQLDEDGSYFLYSKLSVDKSRWQRGDTFICAVMHEALHNHYTQESLSHSPG

IC50 [1]: 1.61 µM
B8: insulin-Fc fusion protein of SEQ ID NO: 50 (Fc fusion)
chain: FVNQHLCGSHLVEALALVCGERGFFYTDPTGGGGGGSGGGGGIVEQCCTSICSLYQLENYCGGGGAGGGGDCPKCPAPEMLGGPSVFIFPPKPKDTLLIARTPEVTCVVVDLDPEDPEVQISWFVDGKQMQTAKTQPREEQFSGTYRVVSVLPIGHQDWLKGKQFTCKVNNKALPSPIERTISKARGQAHQPSVYVLPPSREELSKNTVSLTCLIKDFFPPDIDVEWQSNGQQEPESKYRTTPPQLDEDGSYFLYSKLSVDKSRWQRGDTFICAVMHEALHNHYTQESLSHSPG

IC50 [6]: 1.92 µM
B11: insulin-Fc fusion protein of SEQ ID NO: 51 (Fc fusion)
chain: FVNQHLCGSHLVEALALVCGERGFFYTDPGGGGGGGGGIVEQCCTSICSLYQLENYCGGGGAGGGGDCPKCPAPEMLGGPSVFIFPPKPKDTLLIARTPEVTCVVVDLDPEDPEVQISWFVDGKQMQTAKTQPREEQFSGTYRVVSVLPIGHQDWLKGKQFTCKVNNKALPSPIERTISKARGQAHQPSVYVLPPSREELSKNTVSLTCLIKDFFPPDIDVEWQSNGQQEPESKYRTTPPQLDEDGSYFLYSKLSVDKSRWQRGDTFICAVMHEALHNHYTQESLSHSPG

IC50 [6]: 1.93 µM
IC50 [1]: 4.72 µM
B13: insulin-Fc fusion protein of SEQ ID NO: 52 (Fc fusion)
chain: B12 chain with Q13E, Y16A, D28P, P29G, T30G, P34G, R35G, R36G

IC50 [6]: 2.19 µM
B15: insulin-Fc fusion protein of SEQ ID NO: 54 (Fc fusion)
chain: B12 chain with Q13E, Y16A, D28Q, P29G, T30G, P34G, R35G, R36G

IC50 [7]: 2.4 µM
B16: insulin-Fc fusion protein of SEQ ID NO: 47 (Fc fusion)
chain: B12 chain with Q13E, Y16A, F25Y
